Here are results for 45 variants from the supplement of paper PMC12783771.

± gives the standard deviation of the averaged measurements.

First the molecules themselves.
B1: library; numbered along this chain (parent)
chain: MNIQIGELAKRTACPVVTIRFYEQEGLLPPPGRSRGNFRLYGEEHVERLQFIRHCRSLDMPLSDVRTLLSYRKRPDQDCGEVNMLLDEHIRQVESRIGALLELKHHLVELREACSGARPAQSCGILQGLSDCVCDTRGTTAHPSD

Variants of B1 are the subject of series [1]. The series can be described thus: sfGFP reporter fluorescence (15 h) (µM FITC); higher = higher leak. Particulars: library round: Round 0; ligand: none. The method, boiled down: (§1)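 Linear PbrR templates were made by PCR, normalized to 5 nM with an Echo, and expressed in BL21 Star (DE3) PANOx-SP extract with the pPbrR-sfGFP reporter plasmid and 30 μg/mL GamS. Echo-assembled 1 μL reactions held 1 µM lead chloride, 30 µM zinc acetate or no metal and were incubated 15 hr at 30 °C. Endpoint sfGFP fluorescence was read on a Synergy Neo2 and expressed as µM FITC using standard curves. Up to three biological replicates were run.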

The variants in series [2] derive from B1. In words: sfGFP reporter fluorescence (15 h) (µM FITC); higher = stronger transcriptional activation. Particulars: library round: Round 0. The method, boiled down: as §1

Regarding V108H, the sfGFP reporter fluorescence in series [1] is 0.05772 ± 0.00026; in series [2] (ligand: 1 µM Pb) it was 0.0814 ± 0.0073; in series [2] (ligand: 30 µM Zn), 0.846 ± 0.019.

V108L: the sfGFP reporter fluorescence in series [1] stood at 0.0594 ± 0.001; in series [2] (ligand: 1 µM Pb), 0.0696 ± 0.0026; in series [2] (ligand: 30 µM Zn), 0.616 ± 0.035.

For the variant V108I, the sfGFP reporter fluorescence in series [1] was 0.0566 ± 0.0013; in series [2] (ligand: 1 µM Pb), 0.0667 ± 0.0026; in series [2] (ligand: 30 µM Zn), 0.508 ± 0.011.

V108T: the sfGFP reporter fluorescence in series [1] amounted to 0.0588 ± 0.00078; in series [2] (ligand: 1 µM Pb) it was 0.0724 ± 0.00078; in series [2] (ligand: 30 µM Zn), 0.795 ± 0.063.

V108Q: the sfGFP reporter fluorescence came to 0.0566 ± 0.00078 in series [1], 0.068 ± 0.0018 in series [2] (ligand: 1 µM Pb) and 0.672 ± 0.06 in series [2] (ligand: 30 µM Zn).

Turning to V108A, the sfGFP reporter fluorescence was 0.06304 ± 0.00052 in series [1], 0.0729 ± 0.0042 in series [2] (ligand: 1 µM Pb) and 0.408 ± 0.11 in series [2] (ligand: 30 µM Zn).

Turning to V108R, the sfGFP reporter fluorescence was found to be 0.059 in series [1], 0.0788 ± 0.0021 in series [2] (ligand: 1 µM Pb) and 0.8752 ± 0.0047 in series [2] (ligand: 30 µM Zn).

With E109D, the results for the sfGFP reporter fluorescence in series [1], in series [2] (ligand: 1 µM Pb) and in series [2] (ligand: 30 µM Zn) were 0.0597 ± 0.0021, 0.0727 ± 0.0023 and 0.674 ± 0.02, respectively.

Turning to E109V, the sfGFP reporter fluorescence in series [1] is 0.0605 ± 0.0042; in series [2] (ligand: 1 µM Pb), 0.107 ± 0.0096; in series [2] (ligand: 30 µM Zn), 1.69 ± 0.1.

For E109I, the figures for the sfGFP reporter fluorescence in series [1], in series [2] (ligand: 1 µM Pb) and in series [2] (ligand: 30 µM Zn) were 0.05919 ± 0.00026, 0.108 ± 0.0018 and 1.25 ± 0.29, respectively.

Turning to E109T, the sfGFP reporter fluorescence in series [1] is 0.0625 ± 0.0018; in series [2] (ligand: 1 µM Pb), 0.0935 ± 0.0026; in series [2] (ligand: 30 µM Zn) it was 1.71 ± 0.12.

Regarding E109K, the figures for the sfGFP reporter fluorescence in series [1], in series [2] (ligand: 1 µM Pb) and in series [2] (ligand: 30 µM Zn) were 0.0649 ± 0.001, 0.09492 ± 0.00052 and 2.2 ± 0.14, respectively.

With E109F, the sfGFP reporter fluorescence in series [1] worked out at 0.0621 ± 0.0013; in series [2] (ligand: 1 µM Pb), 0.09126 ± 0.00052; in series [2] (ligand: 30 µM Zn) it was 1.32 ± 0.051.

On to E109N, for which the figures for the sfGFP reporter fluorescence in series [1], in series [2] (ligand: 1 µM Pb) and in series [2] (ligand: 30 µM Zn) were 0.05974 ± 0.00052, 0.0845 ± 0.0044 and 1.47 ± 0.018, respectively.

For the variant E109W, the sfGFP reporter fluorescence in series [1] stood at 0.061 ± 0.00078; in series [2] (ligand: 1 µM Pb), 0.0872 ± 0.0026; in series [2] (ligand: 30 µM Zn), 1.26 ± 0.035.

On to E109L, for which the figures for the sfGFP reporter fluorescence in series [1], in series [2] (ligand: 1 µM Pb) and in series [2] (ligand: 30 µM Zn) were 0.0586 ± 0.001, 0.0907 ± 0.0029 and 1.12 ± 0.12, respectively.

Regarding E109S, the figures for the sfGFP reporter fluorescence in series [1], in series [2] (ligand: 1 µM Pb) and in series [2] (ligand: 30 µM Zn) were 0.0592 ± 0.00078, 0.0803 ± 0.0026 and 1.47 ± 0.04, respectively.

For the variant E109G, the sfGFP reporter fluorescence is 0.05644 ± 0.00052 in series [1], 0.0695 ± 0.0013 in series [2] (ligand: 1 µM Pb) and 0.793 ± 0.063 in series [2] (ligand: 30 µM Zn).

With E109H, the sfGFP reporter fluorescence is 0.0581 ± 0.0013 in series [1], 0.0867 ± 0.0075 in series [2] (ligand: 1 µM Pb) and 0.456 ± 0.012 in series [2] (ligand: 30 µM Zn).

As for E109Y, the sfGFP reporter fluorescence in series [1] came to 0.06029 ± 0.00026; in series [2] (ligand: 1 µM Pb), 0.0832 ± 0.0031; in series [2] (ligand: 30 µM Zn) it was 1.46 ± 0.15.

With E109P, the sfGFP reporter fluorescence was determined as 0.0662 ± 0.0023 in series [1], 0.155 ± 0.011 in series [2] (ligand: 1 µM Pb) and 1.45 ± 0.11 in series [2] (ligand: 30 µM Zn).

As for E109C, the sfGFP reporter fluorescence is 0.0596 ± 0.00078 in series [1], 0.0867 ± 0.0054 in series [2] (ligand: 1 µM Pb) and 1.54 ± 0.077 in series [2] (ligand: 30 µM Zn).

In the case of E109M, the figures for the sfGFP reporter fluorescence in series [1], in series [2] (ligand: 1 µM Pb) and in series [2] (ligand: 30 µM Zn) were 0.061 ± 0.0013, 0.0806 ± 0.0057 and 0.957 ± 0.061, respectively.

As for E109Q, the values for the sfGFP reporter fluorescence in series [1], in series [2] (ligand: 1 µM Pb) and in series [2] (ligand: 30 µM Zn) were 0.0601, 0.0823 ± 0.0034 and 1.08 ± 0.25, respectively.

In the case of E109R, the sfGFP reporter fluorescence in series [1] was found to be 0.06542 ± 0.00026; in series [2] (ligand: 1 µM Pb), 0.102 ± 0.0078; in series [2] (ligand: 30 µM Zn), 1.86 ± 0.052.

As to E109A, the sfGFP reporter fluorescence in series [1] was 0.0636 ± 0.00078; in series [2] (ligand: 1 µM Pb), 0.0804 ± 0.0039; in series [2] (ligand: 30 µM Zn), 0.883 ± 0.35.

For the variant C123Q, the values for the sfGFP reporter fluorescence in series [1], in series [2] (ligand: 1 µM Pb) and in series [2] (ligand: 30 µM Zn) were 0.0585 ± 0.00078, 0.05809 ± 0.00026 and 0.0546 ± 0.0015, respectively.

Regarding C123W, the sfGFP reporter fluorescence was 0.0575 ± 0.001 in series [1], 0.05919 ± 0.00026 in series [2] (ligand: 1 µM Pb) and 0.0546 ± 0.0026 in series [2] (ligand: 30 µM Zn).

Turning to C123P, the sfGFP reporter fluorescence was 0.0559 ± 0.00078 in series [1], 0.05772 ± 0.00026 in series [2] (ligand: 1 µM Pb) and 0.0526 ± 0.00078 in series [2] (ligand: 30 µM Zn).

On to C123I, for which the figures for the sfGFP reporter fluorescence in series [1], in series [2] (ligand: 1 µM Pb) and in series [2] (ligand: 30 µM Zn) were 0.05479 ± 0.00026, 0.0553 ± 0.001 and 0.0517 ± 0.0021, respectively.

For the variant C123K, the sfGFP reporter fluorescence in series [1] is 0.0592 ± 0.0039; in series [2] (ligand: 1 µM Pb), 0.0597 ± 0.001; in series [2] (ligand: 30 µM Zn) it was 0.0574 ± 0.0029.

In the case of C123H, the sfGFP reporter fluorescence in series [1] came out at 0.0588 ± 0.0018; in series [2] (ligand: 1 µM Pb) it was 0.05901 ± 0.00052; in series [2] (ligand: 30 µM Zn) it was 0.0561 ± 0.0021.

On to C123G, for which the sfGFP reporter fluorescence in series [1] is 0.0535 ± 0.001; in series [2] (ligand: 1 µM Pb) it was 0.0552 ± 0.0013; in series [2] (ligand: 30 µM Zn) it was 0.0502 ± 0.0015.

For C123R, the sfGFP reporter fluorescence in series [1] is 0.0599 ± 0.0023; in series [2] (ligand: 1 µM Pb) it was 0.061 ± 0.00078; in series [2] (ligand: 30 µM Zn), 0.0574 ± 0.0044.

Take C123L: the values for the sfGFP reporter fluorescence in series [1], in series [2] (ligand: 1 µM Pb) and in series [2] (ligand: 30 µM Zn) were 0.05589 ± 0.00026, 0.0566 ± 0.0018 and 0.0542 ± 0.0021, respectively.

C123T: the sfGFP reporter fluorescence in series [1] came to 0.0586 ± 0.0021; in series [2] (ligand: 1 µM Pb), 0.0572 ± 0.0015; in series [2] (ligand: 30 µM Zn), 0.0568 ± 0.0036.

With C123S, the sfGFP reporter fluorescence in series [1] is 0.0575 ± 0.0021; in series [2] (ligand: 1 µM Pb), 0.0575 ± 0.001; in series [2] (ligand: 30 µM Zn) it was 0.0552 ± 0.0018.

Take C123D: the sfGFP reporter fluorescence amounted to 0.0577 ± 0.0039 in series [1], 0.0586 in series [2] (ligand: 1 µM Pb) and 0.0564 ± 0.0031 in series [2] (ligand: 30 µM Zn).

For C123E, the sfGFP reporter fluorescence in series [1] is 0.0583 ± 0.001; in series [2] (ligand: 1 µM Pb) it was 0.0588 ± 0.00078; in series [2] (ligand: 30 µM Zn) it was 0.0557 ± 0.001.

For the variant C123V, the sfGFP reporter fluorescence in series [1] was 0.05589 ± 0.00026; in series [2] (ligand: 1 µM Pb), 0.0579 ± 0.0015; in series [2] (ligand: 30 µM Zn) it was 0.0541 ± 0.0018.

On to C123M, for which the sfGFP reporter fluorescence is 0.057 ± 0.0013 in series [1], 0.0577 ± 0.00078 in series [2] (ligand: 1 µM Pb) and 0.0544 ± 0.0034 in series [2] (ligand: 30 µM Zn).

C123Y: the sfGFP reporter fluorescence stood at 0.0586 ± 0.0015 in series [1], 0.0579 in series [2] (ligand: 1 µM Pb) and 0.0546 ± 0.0026 in series [2] (ligand: 30 µM Zn).

C123N: the values for the sfGFP reporter fluorescence in series [1], in series [2] (ligand: 1 µM Pb) and in series [2] (ligand: 30 µM Zn) were 0.0599 ± 0.0018, 0.0561 ± 0.0015 and 0.05498 ± 0.00052, respectively.

With C123A, the sfGFP reporter fluorescence in series [1] is 0.0575 ± 0.001; in series [2] (ligand: 1 µM Pb), 0.0553; in series [2] (ligand: 30 µM Zn) it was 0.0533 ± 0.00078.

For C123F, the sfGFP reporter fluorescence in series [1] was 0.0564 ± 0.0015; in series [2] (ligand: 1 µM Pb), 0.0577 ± 0.00078; in series [2] (ligand: 30 µM Zn), 0.0528 ± 0.0015.
